Source: patent US20230079439A1, “Compositions and Methods for Enhancing Beta Cell Maturation, Health and Function” (THE REGENTS OF THE UNIVERSITY OF CALIFORNIA, priority 2016, published 2023)

Columns and labels:
rat islets = experiment: Insulin secretion by rat islets with soluble neuroligin-2; type: cell-based; settings: 20 mM glucose, read-out: half-maximal inhibition of insulin secretion
Protocol: Soluble neuroligin-2 extracellular domain was added to cultures of rat islets at the indicated concentrations. Insulin secretion was then measured (20 mM glucose). […] The soluble protein competes with endogenous, clustered neuroligin for binding to transcellular partners.

human islet cells = experiment: GSIS of dissociated human islet cells after clustered rNL2ED-Fc; type: cell-based; settings: added 4 hours prior to GSIS
Protocol: FIG. 24 depicts insulin secretion by human islet cells after incubation with cross-linked, clustered rNL2ED-Fc. Indicated volume of solution containing cross-linked rNL2ED-Fc (90 μg/ml) or vehicle alone was added to equal numbers of dissociated human islet cells 4 hours prior to determination of GSIS. Stimulated insulin secretion is shown. […] (n=6 wells, representative of 3 separate experiments).
A recombinant protein with the extracellular domain of neuroligin-2 fused to an IgG Fc domain (rNL2ED-Fc) has been made. In contrast to the peptidomimetic agents, which are modeled on the neurexin binding site, this protein should be able to interact with all extracellular neuroligin-2 binding partners. Chemically cross-linked clusters incorporating this protein are made. Clustered complexes that sufficiently mimic endogenous clustered neuroligin-2 promote β-cell maturation and function to a greater degree than the peptidomimetic-based reagents. […] In contrast, rNL2ED monomers had no effect (not shown).

| IC50 (rat islets) [nM] | Molecule | stimulated insulin secretion by human β-cells (human islet cells) |
| --- | --- | --- |
| 9 | Soluble neuroligin-2 extracellular domain: soluble protein that competes with endogenous, clustered neuroligin for binding to transcellular partners (protein, UniProt Q8NFZ4 15-677, looked up, extracellular domain) extracellular domain: QRGGGGPGGGAPGGPGLGLGSLGEERFPVVNTAYGRVRGVRRELNNEILGPVVQFLGVPYATPPLGARRFQPPEAPASWPGVRNATTLPPACPQNLHGALPAIMLPVWFTDNLEAAATYVQNQSEDCLYLNLYVPTEDGPLTKKRDEATLNPPDTDIRDPGKKPVMLFLHGGSYMEGTGNMFDGSVLAAYGNVIVATLNYRLGVLGFLSTGDQAAKGNYGLLDQIQALRWLSENIAHFGGDPERITIFGSGAGASCVNLLILSHHSEGLFQKAIAQSGTAISSWSVNYQPLKYTRLLAAKVGCDREDSAEAVECLRRKPSRELVDQDVQPARYHIAFGPVVDGDVVPDDPEILMQQGEFLNYDMLIGVNQGEGLKFVEDSAESEDGVSASAFDFTVSNFVDNLYGYPEGKDVLRETIKFMYTDWADRDNGEMRRKTLLALFTDHQWVAPAVATAKLHADYQSPVYFYTFYHHCQAEGRPEWADAAHGDELPYVFGVPMVGATDLFPCNFSKNDVMLSAVVMTYWTNFAKTGDPNQPVPQDTKFIHTKPNRFEEVVWSKFNSKEKQYLHIGLKPRVRDNYRANKVAFWLELVPHLHNLHTELFTTTTRLPPYATRWPPRPPAGAPGTRRPPPPATLPPEPEPEPGPRAYDRFPGDSRDYSTELS | – |
| – | rNL2ED monomers: non-clustered recombinant neuroligin-2 extracellular domain (protein, UniProt Q62888 15-678, looked up, extracellular domain, non-clustered recombinant neuroligin-2 extracellular domain) extracellular domain: QRGGGGPGGGAPGGPGLGLGSLGEERFPVVNTAYGRVRGVRRELNNEILGPVVQFLGVPYATPPLGARRFQPPEAPASWPGVRNATTLPPACPQNLHGALPAIMLPVWFTDNLEAAATYVQNQSEDCLYLNLYVPTEDGPLTKKRDEATLNPPDTDIRDSGKKPVMLFLHGGSYMEGTGNMFDGSVLAAYGNVIVATLNYRLGVLGFLSTGDQAAKGNYGLLDQIQALRWLSENIAHFGGDPERITIFGSGAGASCVNLLILSHHSEGLFQKAIAQSGTAISSWSVNYQPLKYTRLLAAKVGCDREDSTEAVECLRRKSSRELVDQDVQPARYHIAFGPVVDGDVVPDDPEILMQQGEFLNYDMLIGVNQGEGLKFVEDSAESEDGVSASAFDFTVSNFVDNLYGYPEGKDVLRETIKFMYTDWADRDNGEMRRKTLLALFTDHQWVAPAVATAKLHADYQSPVYFYTFYHHCQAEGRPEWADAAHGDELPYVFGVPMVGATDLFPCNFSKNDVMLSAVVMTYWTNFAKTGDPNQPVPQDTKFIHTKPNRFEEVVWSKFNSKEKQYLHIGLKPRVRDNYRANKVAFWLELVPHLHNLHTELFTTTTRLPPYATRWPPRTPGPGTSGTRRPPPPATLPPESDIDLGPRAYDRFPGDSRDYSTELS | had no effect |
